{"source": "paper PMC4241043", "key": {"[1]": {"target": "protein FAF on the surface of F. magna strain ALB8 (F. magna (endogenous in strain ALB8))", "assay": "radioligand binding"}, "[2]": {"target": "FAF-expressing strains (ALB8, L3410, 1462 and 2133)", "assay": "radioligand binding"}, "[3]": {"target": "protein FAF (F. magna adhesion factor), recombinant, amino acids 28-616 (F. magna)", "assay": "SPR"}}}
{"substance": "rFBN2-2, N-terminal half of fibrillin-2 (domain or fragment)", "values": [{"measurement": "percent binding of 125I-labelled fragment", "setting": "[1]", "value": 17, "unit": "%"}]}
{"substance": "rF16, N-terminal half of fibrillin-1 (domain or fragment)", "values": [{"measurement": "percent binding of 125I-labelled fragment", "setting": "[1]", "value": 24, "unit": "%"}]}
{"substance": "galectin-7 (from UniProt P47929 1-136) (natural protein)", "values": [{"measurement": "percent of added radiolabelled galectin-7 bound", "setting": "[2]", "value": "20 to 30", "unit": "%"}, {"measurement": "Kd", "setting": "[3]", "value": 0.53, "unit": "nM"}]}
